Four substances from US5689048 can be followed below.

Test [1] has as its target Mj-AMP1 (Mirabilis jalapa--Antimicrobial Protein 1) (Mirabilis jalapa).
Test [2] has as its target Mj-AMP2 (Mirabilis jalapa--Antimicrobial Protein 2) (Mirabilis jalapa).

On to Trypsin (enzyme), for which the results for the Relative antifungal activity (shown as % of control activity) after Trypsin digestion (% of control activity) in test [1] and in test [2] were 75 and 100, respectively.

For the substance Chymotrypsin (enzyme), the Relative antifungal activity (shown as % of control activity) after Chymotrypsin digestion (% of control activity) amounted to 12 in test [1] and 50 in test [2].

As to Pronase E (enzyme), the Relative antifungal activity (shown as % of control activity) after Pronase E digestion (% of control activity) in test [1] came out at 50; in test [2] it was 25.

With “Proteinase K (from UniProt P06873) (enzyme)”, the Relative antifungal activity (shown as % of control activity) after Proteinase K digestion (% of control activity) in test [1] and in test [2] was 100 each time.
